Assay results from patent US20220211858A1, “TUBULAR SUPRAMOLECULAR POLYMERS” (priority 2019, published 2022).
pIC50: −log10 of the molar value. “Also recorded” adds a separate entry of the source.

How the values were obtained:
HT-29 cells = settings: for median survival: SAPDs 10 mg/kg i.v. days 1, 5, 9, 13; for median survival / mean tumor volume: irinotecan 100 mg/kg i.p. days 1, 8, 15; for mean tumor volume: day 25, SAPDs 10 mg/kg (CPT equivalent) i.v. days 1, 5, 9, 13
[1] = TEM / cryo-TEM imaging of self-assembled nanostructures (dimensions); assay type: physicochemical; settings: 2 mM in water
[2] = Maximum tolerated dose (MTD) dose escalation study; assay type: in vivo, athymic nude mice; settings: for Maximum % BW loss: n=3
Description: Maximum tolerated dose (MTD) studies. MTD of SAPD 1 has been previously determined in our lab (Table 1). MTDs of other SAPDs were determined by dose escalation studies in healthy female athymic nude mice (Charles River, 12-13 weeks old). A single intravenous (i.v.) injection of SAPD was dosed at day 1 and the body weights of each mouse (n=3) were recorded every day for six days and every the other day until two weeks. The dosing volume was determined based upon a ratio of 200 μL for a 20 g mouse. Doses of SAPDs used in the studied were 108, 72, 54, 45, 36 and 18 mg/kg (CPT equivalent).

[3] = Critical micellization concentration (CMC) via Nile Red encapsulation; assay type: physicochemical; settings: SAPDs, PBS buffer, Nile Red method
Description: Nile Red is a hydrophobic, solvatochromic dye that fluoresces intensely upon exposure to hydrophobic environments compared with its strongly quenched and red-shifted fluorescence in aqueous environments. The CMC of the TTs was determined by incubating these molecules at various concentrations with a fixed content of Nile Red. 10 μL of a 1 mM Nile Red stock solution in acetone was added to each microcentrifuge tube to be used, with the acetone allowed to evaporate in a dark area. TT solutions of various concentrations were subsequently added to the Nile Red containing tubes and equilibrated overnight. The emission spectrum for each sample was then recorded on a Fluorolog spectrofluorometer (Horiba Jobin Yvon Inc., Edison, N.J.), acquiring between 580 and 720 nm with an excitation wavelength of 550 nm.
CMC Measurement of SAPDs of TT1. We next assessed the CMC values for each of the designed SAPDs in aqueous solution. […] Experimentally, the CAC is often measured using spectrometry techniques such as circular dichroism (CD) to reveal the presence of intermolecular associations and packing at a much lower concentration. In the case reported here, the CMC values were measured in the PBS buffer using Nile Red as a probe, which fluoresces intensely in hydrophobic environments and is strongly quenched and red-shifted in aqueous media. […]

[4] = Circulation studies of SAPDs in rats; assay type: in vivo, Sprague Dawley (SD) rats; settings: 10 mg/kg i.v.; for CPT remained in the bounded form: 5 min
Description: Circulation studies of SAPDs in rats. Female Sprague Dawley (SD) Rats (200-250 g) were randomly grouped into four groups with three rats in each group. SAPDs were all intravenously (i.v.) dosed at 10 mg/kg (CPT equivalent). The dosing volumes of SAPDs were estimated by a ratio of 1 mL for a 200 g rat. The blood samples were collected at 5 min, 15 min, 30 min, 1 h, 2 h, 4 h, 8 h, and 12 h, which were immediately centrifuged to take plasma for further analysis and stored at −80° C. The plasma proteins were precipitated using similar protocols as mentioned above in drug release section and the determination of SAPDs and free CPT in the plasma by UPLC also used the same conditions.
Estimation of SAPD concentration in plasma upon injection. To calculation the concentration after dilution, we simply set the following parameters: body weight of mice (20 g), dosing volume of mice (200 μL), blood volume of mice (1.8 mL), body weight of rat (200 g), dosing volume of mice (1 mL), blood volume of mice (18 mL) and the dosage for both mice and rats (10 mg/kg).

[5] = test system: U87 MG human brain cancer cells; settings: 48 h incubation, SRB, CPT concentration
Description: The human brain cancer cell line U87 MG was a generous gift from Dr. Wirtz (ChemBE, JHU). DMEM (Invitrogen) containing 10% fetal bovine serum (FBS, Invitrogen) and 1% antibiotics (Invitrogen) was used for the culture of the U87 MG cells. Cancer cells were incubated at 37° C. in a humidified incubator (Oasis, Caron, Marietta, Ohio, USA) with an atmosphere of 5% CO2. […] U87 MG cells were seeded onto 96-well plates (5000 cells/well) and allowed to attach overnight. […] The stock solutions were then diluted with fresh medium to achieve final CPT concentrations of 0.1, 1, 10, 100, 500, 1000, 5000 and 10000 nM. After dilution, the nanotube-containing media were used to incubate cells immediately. Medium containing the same concentration of free CPT ranging from 0.1 to 10000 nM was also used to incubate the cells, with non-treated cells (solvent only) as the control group. In addition, irinotecan at the concentration of 0.1, 1, 5, 10, 50, 100 and 500 μM was employed as a second control. After 48 h incubation, the cell viability was evaluated using the SRB method according to the manufacturer's protocols (TOX-6, Sigma, St. Louis, Mo.).

[6] = Physical stability of TT 1 nanotubes upon dilution in cell medium (CD); assay type: physicochemical
Description: The stability of non-ionic TT 1 nanotubes upon dilution in cell medium was evaluated by recording the CD spectrum for a series of prepared dilutions. […] A stock solution of TT 1 nanotube was prepared at a concentration of 1 mM in water and aged overnight. The aged solution was then diluted to 200 μM with cell medium. Further dilutions of the 200 μM TT 1 nanotube in cell medium were prepared at 100 μM, 50 μM, 25 μM, 10 μM, and 5 μM concentration. All diluted solutions were incubated for an additional two days before CD measurements were made. All the CD spectra were recorded from 300 to 440 nm using a 1 mm (for 200 μM, 100 μM, and 50 μM) or 10 mm (for 25 μM, 10 μM, and 5 μM) path length quartz cell. The spectra were collected and normalized from ellipticity (mdeg) to molar ellipticity (deg·cm^2·dmol^−1).

[7] = female, athymic nude, mouse, in vivo, iv, single i.v. injection, CPT equivalent, healthy athymic nude mice
[8] = single i.v. dose 18 mg/kg (CPT equivalent)
[9] = single i.v. dose 36 mg/kg (CPT equivalent)
[10] = single i.v. dose 54 mg/kg (CPT equivalent)

## CC[C@]1(OC(=O)OCCSSC[C@@H](NC(C)=O)C(=O)N[C@@H](CCCCNC(=O)[C@@H](CSSCCOC(=O)O[C@]2(CC)C(=O)OCc3c2cc2n(c3=O)Cc3cc4ccccc4nc3-2)NC(C)=O)C(=O)N[C@@H](CCCCNC(=O)CCOCCOCCOCCOCCOC)C(=O)N[C@@H](CCCCNC(=O)CCOCCOCCOCCOCCOC)C(=O)N[C@@H](CCCCNC(=O)CCOCCOCCOCCOCCOC)C(=O)N[C@@H](CCCCNC(=O)CCOCCOCCOCCOCCOC)C(N)=O)C(=O)OCc2c1cc1n(c2=O)Cc2cc3ccccc3nc2-1 [SAPD 2]
HT-29 cells
  median survival: 46 days
  mean tumor volume: 255 mm^3
[1]
  length of filaments (majority): less than 400 nm
[2]; [7]
  MTD at 2 weeks: 54 mg/kg
[2]; single i.v. dose 18 mg/kg
  Survival/Total: 3/3
  day of maximum BW loss: 5 days
[2]; [8]
  Maximum % BW loss: 6.2%
[2]; single i.v. dose 36 mg/kg
  Survival/Total: 3/3
  day of maximum BW loss: 6 days
[2]; [9]
  Maximum % BW loss: 2.1%
[2]; single i.v. dose 45 mg/kg
  Survival/Total: 3/3
  day of maximum BW loss: 2 days
[2]; single i.v. dose 45 mg/kg (CPT equivalent)
  Maximum % BW loss: 4.0%
[2]; single i.v. dose 54 mg/kg
  Survival/Total: 3/3
  day of maximum BW loss: 2 days
[2]; [10]
  Maximum % BW loss: 3.5%
[2]; single i.v. dose 72 mg/kg
  Survival/Total: 2/3
  day of maximum BW loss: 2 days
[2]; single i.v. dose 72 mg/kg (CPT equivalent)
  Maximum % BW loss: 11.4%
[2]; single i.v. dose 108 mg/kg
  Survival/Total: 0/3
[3]
  CMC: 10.1 µM
[4]
  CPT remained in the bounded form: 28%
[4]; 1 h
  total CPT concentration in plasma: 7.0 µM
[4]; 2 h
  total CPT concentration in plasma: 2.2 µM

## CC[C@]1(OC(=O)OCCSSC[C@@H](NC(C)=O)C(=O)N[C@@H](CCCCNC(=O)[C@@H](CSSCCOC(=O)O[C@]2(CC)C(=O)OCc3c2cc2n(c3=O)Cc3cc4ccccc4nc3-2)NC(C)=O)C(=O)N[C@@H](CCCCNC(=O)CCOCCOCCOCCOCCOC)C(=O)N[C@@H](CCCCNC(=O)CCOCCOCCOCCOCCOC)C(N)=O)C(=O)OCc2c1cc1n(c2=O)Cc2cc3ccccc3nc2-1 [TT 1]
[5]
  pIC50: 6.83
HT-29 cells; 10 mg/kg i.v.
  toxicity according to body weight change: most toxicity
HT-29 cells
  median survival: 56 days
  mean tumor volume: 60 mm^3
[1]
  diameter of supramolecular filaments: around 9 nm
[6]; after one week
  appearance of solution in cell medium: remained clear after one week; also recorded: remains clear after a week
[6]; cell medium with 10% FBS, 10 and 5 μM
  change of CD signal upon dilution: slight decreases in intensity; also recorded: slight decrease of CD signal at 389 nm
[6]; cell medium with 10% FBS, concentrations above 25 μM, two days
  dissociation of nanotubes upon dilution (CD): no obvious disassociation; also recorded: minimum dissociation or aggregation
[2]; [7]
  MTD: 24 mg/kg
[2]; single i.v. dose 4.5 mg/kg
  Survival/Total: 3/3
[2]; single i.v. dose 4.5 mg/kg (CPT equivalent)
  Maximum % BW loss: 0%
[2]; single i.v. dose 9 mg/kg
  Survival/Total: 3/3
  day of maximum BW loss: 1 days
[2]; single i.v. dose 9 mg/kg (CPT equivalent)
  Maximum % BW loss: 5.1%
[2]; single i.v. dose 15 mg/kg
  Survival/Total: 3/3
  day of maximum BW loss: 2 days
[2]; single i.v. dose 15 mg/kg (CPT equivalent)
  Maximum % BW loss: 5.0%
[2]; single i.v. dose 18 mg/kg
  Survival/Total: 3/3
  day of maximum BW loss: 1 days
[2]; [8]
  Maximum % BW loss: 6.5%
[2]; single i.v. dose 24 mg/kg
  Survival/Total: 3/3
  day of maximum BW loss: 3 days
[2]; single i.v. dose 24 mg/kg (CPT equivalent)
  Maximum % BW loss: 9.8%
[2]; single i.v. dose 30 mg/kg
  Survival/Total: 1/3
  day of maximum BW loss: 4 days
[2]; single i.v. dose 30 mg/kg (CPT equivalent)
  Maximum % BW loss: 20.6%
[2]; single i.v. dose 36 mg/kg
  Survival/Total: 0/3
  day of maximum BW loss: 3 days
[2]; [9]
  Maximum % BW loss: 21.2%
[2]; single i.v. dose 54 mg/kg
  Survival/Total: 0/3
  day of maximum BW loss: 3 days
[2]; [10]
  Maximum % BW loss: 20%
[3]
  CMC: 2.7 µM
[4]
  CPT remained in the bounded form: 86%
[4]; 1 h
  total CPT concentration in plasma: 15.3 µM
  total CPT retained in the conjugate form: more than 72%
[4]; 2 h
  total CPT concentration in plasma: 8.1 µM
